Experimental data as given in US20030165997, “Zinc finger domain libraries” (published 2003).

Legend:
[1] = biological target: ZFP 34 VSSR-HSNK-RSNR (Homo sapiens); experiment: cell_activity; HEK 293 luciferase; settings: tags: HA, NLS
Protocol: (§1) The in vivo activity assay for a particular three-finger protein was carried out as follows. HEK 293 cells were transfected with four plasmids: 14 ng of a plasmid expressing the particular three-finger protein; 14 ng of the reporter plasmid described above; 70 ng of a plasmid that expresses GAL4-VP 16; and 1.4 ng of a plasmid that expresses Renillar luciferase. The GAL4-VP 16 activates transcription of the minimal synthetic promoter in the reporter so that the repression effected by a particular three-finger protein could be clearly detected and compared to other three-finger proteins. The plasmid expressing Renillar luciferase provides a control of transfection efficiency.
(§2) Lipofectamine (Gibco-BRL) was used for the transfection procedures. Cells were transfected at 30-50% confluency in wells of a 96 well plate. The cells were incubated for two days prior to harvesting for the luciferase assay. Then luciferase activities were measured using the Dual-Luciferase™ Reporter Assay System (Promega). The observed firefly luciferase activity was normalized using the observed level of Renilla luciferase. The extent of repression or “fold-repression” was calculated by dividing a value for normalized reporter expression in the absence of a zinc finger protein by a value for normalized reporter expression in the presence of the zinc finger protein.
(§3) A total of 153 three-finger chimeric proteins were constructed from both the “zinc finger protein-first” and the “target site-first” approaches. These proteins were tested using the transient cotransfection assay described in Example 68.

[2] = biological target: ZFP 33 QSNV2-RSHR-RDER1 (Homo sapiens); experiment: cell_activity; HEK 293 luciferase; settings: tags: HA, NLS
Protocol: as §1, §2, §3

[3] = biological target: ZFP 32 QSNV2-RSNR-RDHT (Homo sapiens); experiment: cell_activity; HEK 293 luciferase; settings: tags: HA, NLS
Protocol: as §1, §2, §3

[4] = biological target: ZFP 27 RSHR-RDER1-RSHR (synthetic); experiment: cell_activity; HEK293 luciferase repression; settings: tags: HA tag and NLS (P3 vector)
Protocol: as §1, §2, §3

[5] = biological target: ZFP 29 QSNR3-RDHT-RSNR (synthetic); experiment: cell_activity; HEK293 luciferase repression; settings: tags: HA tag and NLS (P3 vector)
Protocol: as §1, §2, §3

[6] = biological target: ZFP 10 RDHT-RSHR-QSHR2 (synthetic); experiment: cell_activity; HEK293 luciferase repression; settings: tags: HA tag and NLS (P3 vector)
Protocol: as §1, §2, §3

[7] = biological target: ZFP 19 RDER1-VSSR-QSHT (synthetic); experiment: cell_activity; HEK293 luciferase repression; settings: tags: HA tag and NLS (P3 vector)
Protocol: as §1, §2, §3

[8] = biological target: ZFP 4 RSHR-RDER1-RDER1 (synthetic); experiment: cell_activity; HEK293 luciferase repression; settings: tags: HA tag and NLS (P3 vector)
Protocol: as §1, §2, §3

[9] = biological target: T1, Zif268 zinc finger protein (three fingers) (UniProt P08046 SEQ:1-89); experiment: EMSA; Zn2+, Mg2+, pH 7.7, RT; no yeast growth; 1.3-fold repression (Table 8)
[10] = biological target: ZFP 13 QSHR2-RDER1-RSNR (synthetic); experiment: cell_activity; HEK293 luciferase repression; settings: tags: HA tag and NLS (P3 vector)
Protocol: as §1, §2, §3

[11] = biological target: ZFP 16 QSHR2-RDER1-RSHR (synthetic); experiment: cell_activity; HEK293 luciferase repression; settings: tags: HA tag and NLS (P3 vector)
Protocol: as §1, §2, §3

[12] = biological target: ZFP 6 RSHR-RDER1-RDHT (synthetic); experiment: cell_activity; HEK293 luciferase repression; settings: tags: HA tag and NLS (P3 vector)
Protocol: as §1, §2, §3

[13] = biological target: ZFP 18 RDER1-QSSR1-QSHT (synthetic); experiment: cell_activity; HEK293 luciferase repression; settings: tags: HA tag and NLS (P3 vector)
Protocol: as §1, §2, §3

[14] = biological target: ZFP 30 RSHR-RSHR-QSHR2 (synthetic); experiment: cell_activity; HEK293 luciferase repression; settings: tags: HA tag and NLS (P3 vector)
Protocol: as §1, §2, §3

[15] = biological target: ZFP 11 QSHT-RSHR-RDHT (synthetic); experiment: cell_activity; HEK293 luciferase repression; settings: tags: HA tag and NLS (P3 vector)
Protocol: as §1, §2, §3

[16] = biological target: ZFP 7 RDHT-QSNV2-RSHR (synthetic); experiment: cell_activity; HEK293 luciferase repression; settings: tags: HA tag and NLS (P3 vector)
Protocol: as §1, §2, §3

[17] = biological target: T1, Zif268 zinc finger protein (three …); experiment: EMSA; Zn2+, Mg2+, pH 7.7, RT; no yeast growth; 1.6-fold repression (Table 8)
[18] = biological target: ZFP 28 VSSR-QSNR3-RDER1 (synthetic); experiment: cell_activity; HEK293 luciferase repression; settings: tags: HA tag and NLS (P3 vector)
Protocol: as §1, §2, §3

[19] = biological target: ZFP 24 CSNR1-QSHT-RSNR (synthetic); experiment: cell_activity; HEK293 luciferase repression; settings: tags: HA tag and NLS (P3 vector)
Protocol: as §1, §2, §3

[20] = biological target: ZFP 25 QSNR3-RDER1-RSNR (synthetic); experiment: cell_activity; HEK293 luciferase repression; same pair listed again as entry 61 with 1.5; settings: tags: HA tag and NLS (P3 vector)
Protocol: as §1
(§4) Lipofectamine (Gibco-BRL) was used for the transfection procedures. Cells were transfected at 30-50% confluency in wells of a 96 well plate. The cells were incubated for two days prior to harvesting for the luciferase assay. Then luciferase activities were measured using the Dual-Luciferase™ Reporter Assay System (Promega). The observed firefly luciferase activity was normalized using the observed level of Renilla luciferase. The extent of repression or “fold-repression” was calculated by dividing a value for normalized reporter expression in the absence of a zinc finger protein by a value for normalized reporter expression in the presence of the zinc finger protein. […]

[21] = biological target: ZFP 26 QSNR3-QSNV2-RSHR (synthetic); experiment: cell_activity; HEK293 luciferase repression; settings: tags: HA tag and NLS (P3 vector)
Protocol: as §1, §2, §3

[22] = biological target: T1, Zif268 zinc finger protein (three …); experiment: EMSA; Zn2+, Mg2+, pH 7.7, RT; no yeast growth; 1.5-fold repression (Table 8)
[23] = biological target: ZFP 20 QSNR3-QSHR2-RSNR (synthetic); experiment: cell_activity; HEK293 luciferase repression; settings: tags: HA tag and NLS (P3 vector)
Protocol: as §1, §2, §3

[24] = biological target: ZFP 2 CSNR1-RSHR-RDHT (synthetic); experiment: cell_activity; HEK293 luciferase repression; settings: tags: HA tag and NLS (P3 vector)
Protocol: as §1, §2, §3

[25] = biological target: ZFP 22 RSNR-VSSR-RSHR (synthetic); experiment: cell_activity; HEK293 luciferase repression; settings: tags: HA tag and NLS (P3 vector)
Protocol: as §1, §2, §3

[26] = biological target: ZFP 23 RDHT-RSNR-QSNR3 (synthetic); experiment: cell_activity; HEK293 luciferase repression; settings: tags: HA tag and NLS (P3 vector)
Protocol: as §1, §2, §3

[27] = biological target: T1, Zif268 zinc finger protein (three …); experiment: EMSA; 20 mM Tris pH 7.7, 120 mM NaCl, 5 mM MgCl2, 20 uM ZnSO4, RT; yeast growth +++; 28-fold repression in human cells (Table 8)
[28] = biological target: ZFP 12 QSSR1-QSNV2-RSNR (synthetic); experiment: cell_activity; HEK293 luciferase repression; settings: tags: HA tag and NLS (P3 vector)
Protocol: as §1, §2, §3

[29] = biological target: ZFP 15 VSNV-CSNR1-RSNR (synthetic); experiment: cell_activity; HEK293 luciferase repression; settings: tags: HA tag and NLS (P3 vector)
Protocol: as §1, §2, §3

[30] = biological target: ZFP 8 RSNR-QSHR2-QSSR1 (synthetic); experiment: cell_activity; HEK293 luciferase repression; settings: tags: HA tag and NLS (P3 vector)
Protocol: as §1, §2, §3

[31] = biological target: ZFP 1 RSNR-RDHT-RSNR (synthetic); experiment: cell_activity; HEK293 luciferase repression of GAL4-VP16 activated reporter; settings: tags: HA tag and NLS (P3 vector)
Protocol: as §1, §4

[32] = biological target: T1, Zif268 zinc finger protein (three …); experiment: EMSA; Zn2+, Mg2+, pH 7.7, RT; yeast growth ++; 5.9-fold repression (Table 8)
[33] = biological target: T1, Zif268 zinc finger protein (three …); experiment: EMSA; Zn2+, Mg2+, pH 7.7, RT; no yeast growth; 1.2-fold repression (Table 8)
[34] = biological target: ZFP 3 RDHT-QSNV2-QSSR1 (synthetic); experiment: cell_activity; HEK293 luciferase repression; settings: tags: HA tag and NLS (P3 vector)
Protocol: as §1, §2, §3

Sequence of ZFP 1 RSNR-RDHT-RSNR (synthetic) (chain, as listed by the source): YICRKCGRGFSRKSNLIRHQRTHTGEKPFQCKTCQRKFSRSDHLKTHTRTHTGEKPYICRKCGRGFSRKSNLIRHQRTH
Sequence of ZFP 30 RSHR-RSHR-QSHR2 (synthetic) (chain, as listed by the source): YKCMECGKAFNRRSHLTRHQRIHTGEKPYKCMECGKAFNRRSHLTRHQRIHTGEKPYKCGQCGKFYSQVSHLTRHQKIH
Sequence of ZFP 20 QSNR3-QSHR2-RSNR (synthetic) (chain, as listed by the source): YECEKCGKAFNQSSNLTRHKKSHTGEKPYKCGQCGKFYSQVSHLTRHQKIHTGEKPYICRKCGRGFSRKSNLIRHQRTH
Sequence of ZFP 34 VSSR-HSNK-RSNR (Homo sapiens) (chain, as listed by the source): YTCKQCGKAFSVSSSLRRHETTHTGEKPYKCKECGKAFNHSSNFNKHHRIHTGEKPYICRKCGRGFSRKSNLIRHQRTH
Sequence of ZFP 23 RDHT-RSNR-QSNR3 (synthetic) (chain, as listed by the source): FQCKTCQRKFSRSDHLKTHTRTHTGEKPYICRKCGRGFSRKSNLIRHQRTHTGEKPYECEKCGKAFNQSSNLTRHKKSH
Sequence of ZFP 32 QSNV2-RSNR-RDHT (Homo sapiens) (chain, as listed by the source): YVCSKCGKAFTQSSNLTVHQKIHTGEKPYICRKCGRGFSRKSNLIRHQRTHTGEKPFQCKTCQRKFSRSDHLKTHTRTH
Sequence of ZFP 24 CSNR1-QSHT-RSNR (synthetic) (chain, as listed by the source): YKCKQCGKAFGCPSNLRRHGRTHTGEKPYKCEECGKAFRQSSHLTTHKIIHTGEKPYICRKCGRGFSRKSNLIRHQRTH
Sequence of ZFP 3 RDHT-QSNV2-QSSR1 (synthetic) (chain, as listed by the source): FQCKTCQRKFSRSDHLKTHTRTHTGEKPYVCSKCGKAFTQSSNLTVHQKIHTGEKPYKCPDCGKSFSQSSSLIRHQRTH
Sequence of ZFP 22 RSNR-VSSR-RSHR (synthetic) (chain, as listed by the source): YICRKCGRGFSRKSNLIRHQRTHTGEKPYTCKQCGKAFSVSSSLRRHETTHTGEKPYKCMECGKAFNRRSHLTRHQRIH
Sequence of ZFP 18 RDER1-QSSR1-QSHT (synthetic) (chain, as listed by the source): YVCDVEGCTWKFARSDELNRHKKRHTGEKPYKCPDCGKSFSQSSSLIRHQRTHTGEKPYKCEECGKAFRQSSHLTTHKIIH
Sequence of ZFP 7 RDHT-QSNV2-RSHR (synthetic) (chain, as listed by the source): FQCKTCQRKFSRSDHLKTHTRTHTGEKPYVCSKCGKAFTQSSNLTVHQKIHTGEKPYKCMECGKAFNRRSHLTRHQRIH
Sequence of ZFP 2 CSNR1-RSHR-RDHT (synthetic) (chain, as listed by the source): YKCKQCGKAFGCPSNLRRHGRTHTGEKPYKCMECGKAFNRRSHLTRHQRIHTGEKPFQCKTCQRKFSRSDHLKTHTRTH
Sequence of ZFP 10 RDHT-RSHR-QSHR2 (synthetic) (chain, as listed by the source): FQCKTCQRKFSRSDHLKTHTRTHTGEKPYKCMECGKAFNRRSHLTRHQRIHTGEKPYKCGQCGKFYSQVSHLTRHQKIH
Sequence of ZFP 12 QSSR1-QSNV2-RSNR (synthetic) (chain, as listed by the source): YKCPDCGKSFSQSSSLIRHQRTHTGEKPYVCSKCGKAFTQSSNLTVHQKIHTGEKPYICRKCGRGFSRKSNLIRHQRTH
Sequence of ZFP 25 QSNR3-RDER1-RSNR (synthetic) (chain, as listed by the source): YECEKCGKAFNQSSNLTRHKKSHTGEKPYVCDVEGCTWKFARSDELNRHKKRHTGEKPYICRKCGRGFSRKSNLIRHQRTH
Sequence of ZFP 6 RSHR-RDER1-RDHT (synthetic) (chain, as listed by the source): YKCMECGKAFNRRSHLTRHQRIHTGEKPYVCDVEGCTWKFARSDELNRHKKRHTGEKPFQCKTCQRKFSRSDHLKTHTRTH
Sequence of ZFP 4 RSHR-RDER1-RDER1 (synthetic) (chain, as listed by the source): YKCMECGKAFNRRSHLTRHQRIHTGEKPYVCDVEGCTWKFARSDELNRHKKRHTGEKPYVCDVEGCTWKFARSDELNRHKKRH
Sequence of ZFP 11 QSHT-RSHR-RDHT (synthetic) (chain, as listed by the source): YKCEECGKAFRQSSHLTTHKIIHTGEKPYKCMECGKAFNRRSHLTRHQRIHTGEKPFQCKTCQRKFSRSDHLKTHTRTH
Sequence of ZFP 19 RDER1-VSSR-QSHT (synthetic) (chain, as listed by the source): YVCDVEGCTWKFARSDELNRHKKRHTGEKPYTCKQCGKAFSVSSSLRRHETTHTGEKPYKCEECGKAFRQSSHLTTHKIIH
Sequence of ZFP 16 QSHR2-RDER1-RSHR (synthetic) (chain, as listed by the source): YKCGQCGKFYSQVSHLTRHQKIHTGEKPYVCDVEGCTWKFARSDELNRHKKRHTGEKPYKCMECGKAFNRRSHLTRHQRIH
Sequence of ZFP 27 RSHR-RDER1-RSHR (synthetic) (chain, as listed by the source): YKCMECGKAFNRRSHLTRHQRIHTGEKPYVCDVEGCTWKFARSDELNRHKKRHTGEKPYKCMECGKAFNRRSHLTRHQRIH
Sequence of ZFP 15 VSNV-CSNR1-RSNR (synthetic) (chain, as listed by the source): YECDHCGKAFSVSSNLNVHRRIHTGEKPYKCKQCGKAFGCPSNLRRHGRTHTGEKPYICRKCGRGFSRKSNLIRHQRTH
Sequence of ZFP 8 RSNR-QSHR2-QSSR1 (synthetic) (chain, as listed by the source): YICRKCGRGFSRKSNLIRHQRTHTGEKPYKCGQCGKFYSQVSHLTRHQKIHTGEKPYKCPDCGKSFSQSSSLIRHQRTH
Sequence of ZFP 28 VSSR-QSNR3-RDER1 (synthetic) (chain, as listed by the source): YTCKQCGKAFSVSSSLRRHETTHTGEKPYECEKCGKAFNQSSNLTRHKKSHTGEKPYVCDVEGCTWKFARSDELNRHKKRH
Sequence of ZFP 13 QSHR2-RDER1-RSNR (synthetic) (chain, as listed by the source): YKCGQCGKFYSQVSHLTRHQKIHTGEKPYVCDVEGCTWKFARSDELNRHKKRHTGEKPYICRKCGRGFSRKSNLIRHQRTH
Sequence of ZFP 33 QSNV2-RSHR-RDER1 (Homo sapiens) (chain, as listed by the source): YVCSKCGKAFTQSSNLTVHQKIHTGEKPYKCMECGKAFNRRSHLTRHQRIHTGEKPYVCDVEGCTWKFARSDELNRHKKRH
Sequence of ZFP 29 QSNR3-RDHT-RSNR (synthetic) (chain, as listed by the source): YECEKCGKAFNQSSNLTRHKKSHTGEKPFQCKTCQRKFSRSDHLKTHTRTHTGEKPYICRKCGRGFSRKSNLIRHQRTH
Sequence of ZFP 26 QSNR3-QSNV2-RSHR (synthetic) (chain, as listed by the source): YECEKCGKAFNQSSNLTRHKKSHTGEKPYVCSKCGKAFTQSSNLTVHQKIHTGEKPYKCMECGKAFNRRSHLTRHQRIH

B1: target 34 (dsDNA)
DNA 1: GAGGACGTG
DNA 2: CACGTCCTC
B1 showed an activity [1] of 1.9 fold repression.

B2: target 33 (dsDNA)
DNA 1: GTGGGGAAAA
DNA 2: TTTTCCCCAC
B2 gave an activity [2] of 1.9 fold repression.

B3: target 32 (dsDNA)
DNA 1: GGGGAGAAA
DNA 2: TTTCTCCCC
B3 was tested, and the activity [3] was 1.9 fold repression.

B4: target 27 (dsDNA)
DNA 1: GGGGTGGGG
DNA 2: CCCCACCCC
B4 gave an activity [4] of 2 fold repression.

B5: target 29 (dsDNA)
DNA 1: GAGTGGGAAA
DNA 2: TTTCCCACTC
B5 gave an activity [5] of 2 fold repression.

B6: target 10 (dsDNA)
DNA 1: GGAGGGTGG
DNA 2: CCACCCTCC
B6 was tested, and the activity [6] was 3.1 fold repression.

B7: target 19 (dsDNA)
DNA 1: CGAGTTGCG
DNA 2: CGCAACTCG
Binder B7 has an activity [7] of 2.1 fold repression.

B8: target 4 (dsDNA)
DNA 1: GCGGCGGGGC
DNA 2: GCCCCGCCGC
With B8 the activity [8] was 3.8 fold repression.

B9: ACAT probe (dsDNA)
DNA 1: CCGGGTCGGACATGGGCGGTACCG
DNA 2: TCGACGGTACCGCCCATGTCCGAC
B9 was tested, and the Kd [9] was 1.3 nM.

B10: target 13 (dsDNA)
DNA 1: GAGGTGGGAG
DNA 2: CTCCCACCTC
Work on B10 yielded an activity [10] of 2.8 fold repression.

B11: target 16 (dsDNA)
DNA 1: GGGGCGGGAT
DNA 2: ATCCCGCCCC
In the case of B11, the activity [11] is reported as 2.3 fold repression.

B12: target 6 (dsDNA)
DNA 1: AGGGCGGGGC
DNA 2: GCCCCGCCCT
For B12, the activity [12] was 3.6 fold repression.

B13: target 18 (dsDNA)
DNA 1: CGAGCAGCG
DNA 2: CGCTGCTCG
For B13, the activity [13] was 2.2 fold repression.

B14: target 30 (dsDNA)
DNA 1: GGAGGGGGGC
DNA 2: GCCCCCCTCC
For B14, the activity [14] was 2 fold repression.

B15: target 11 (dsDNA)
DNA 1: TGGGGGTGA
DNA 2: TCACCCCCA
For B15, the activity [15] was 3 fold repression.

B16: target 7 (dsDNA)
DNA 1: GGGAAACGGG
DNA 2: CCCGTTTCCC
B16 was tested, and the activity [16] was 3.6 fold repression.

B17: GAGC probe (dsDNA)
DNA 1: CCGGGTCGCGAGCGGGCGGTACCG
DNA 2: TCGACGGTACCGCCCGCTCGCGAC
In the case of B17, the Kd [17] is reported as 2.3 nM.

B18: target 28 (dsDNA)
DNA 1: GCGGAAGTTC
DNA 2: GAACTTCCGC
With B18 the activity [18] was 2 fold repression.

B19: target 24 (dsDNA)
DNA 1: GAGTGAGACC
DNA 2: GGTCTCACTC
B19 showed an activity [19] of 2.1 fold repression.

B20: target 25 (dsDNA)
DNA 1: GAGGCGGAAA
DNA 2: TTTCCGCCTC
B20 was tested, and the activity [20] was 2.1 fold repression.

B21: target 26 (dsDNA)
DNA 1: GGGAAAGAAC
DNA 2: GTTCTTTCCC
In the case of B21, the activity [21] is reported as 2 fold repression.

B22: GCTT probe (dsDNA)
DNA 1: CCGGGTCGTGCTTGGGCGGTACCG
DNA 2: TCGACGGTACCGCCCAAGCACGAC
B22 gave a Kd [22] of 2.1 nM.

B23: target 20 (dsDNA)
DNA 1: GAGGGAGAAG
DNA 2: CTTCTCCCTC
B23 showed an activity [23] of 2.1 fold repression.

B24: target 2 (dsDNA)
DNA 1: TGGGGGGACA
DNA 2: TGTCCCCCCA
Work on B24 yielded an activity [24] of 4.5 fold repression.

B25: target 22 (dsDNA)
DNA 1: GGGGTTGAG
DNA 2: CTCAACCCC
B25 showed an activity [25] of 2.1 fold repression.

B26: target 23 (dsDNA)
DNA 1: GAAGAGAGGT
DNA 2: ACCTCTCTTC
For B26, the activity [26] was 2.1 fold repression.

B27: GCGT probe (dsDNA)
DNA 1: CCGGGTCGCGCGTGGGCGGTACCG
DNA 2: TCGACGGTACCGCCCACGCGCGAC
B27 gave a Kd [27] of 0.024 nM.

B28: target 12 (dsDNA)
DNA 1: GAGCAAGTAG
DNA 2: CTACTTGCTC
B28 gave an activity [28] of 2.9 fold repression.

B29: target 15 (dsDNA)
DNA 1: GAGGACAATG
DNA 2: CATTGTCCTC
In the case of B29, the activity [29] is reported as 2.5 fold repression.

B30: target 8 (dsDNA)
DNA 1: GTAGGAGAGT
DNA 2: ACTCTCCTAC
For B30, the activity [30] was 3.3 fold repression.

B31: target 1 (dsDNA)
DNA 1: GAGAGGGAGC
DNA 2: GCTCCCTCTC
B31 gave an activity [31] of 8.1 fold repression.

B32: GAGT probe (dsDNA)
DNA 1: CCGGGTCGGGAGTGGGCGGTACCG
DNA 2: TCGACGGTACCGCCCACTCCCGAC
With B32 the Kd [32] was 0.17 nM.

B33: GACT probe (dsDNA)
DNA 1: CCGGGTCGGGACTGGGCGGTACCG
DNA 2: TCGACGGTACCGCCCAGTCCCGAC
B33 gave a Kd [33] of 4.9 nM.

B34: target 3 (dsDNA)
DNA 1: GCACAATGG
DNA 2: CCATTGTGC
B34 gave an activity [34] of 4 fold repression.
